Read-outs that look alike come from different tables or passages of the source.
Experiments:
human PAR2 = experiment: Fura-2 calcium imaging in HeLa cells transfected with PAR2 cDNA; assay type: cell-based; conditions: PAR2-transfected HeLa; KVDGTS 100 µM, cathepsin S 2 µM, papain 2 µM, trypsin 10 nM; second agent after up to 60 minutes; room temperature
Procedure: Human PAR2 cDNA was cloned as an Xho I-Hind III fragment (1206 bp) into pcDNA3.1(−). 10 µg of DNA were diluted into 0.5 ml of DMEM and mixed with 0.5 ml of DMEM containing 10 µl of Lipofectamine 2000 transfection reagent and incubated at room temperature for 20 minutes. HeLa cells were grown to confluence, trypsinized and 1×10^6 cells were pelleted in a 15 ml tube by centrifugation at 1000 rpm for 5 minutes. The DMEM-Lipofectamine 2000-DNA mixture (1 ml) was added to the cell pellet, resuspended gently and incubated at room temperature for 20 minutes. Four ml of complete DMEM with 10% FBS were added to the tube, mixed by inverting the tube several times, plated into a 96-well glass bottom plate at 20,000 cells/well, and placed in a 37°C CO2 incubator. HeLa cells transfected with vector alone or salmon sperm DNA (shown in the figures) were plated as a control. The medium was aspirated two days after transfection. Fura-2 was used as a ratiometric calcium-sensitive indicator as follows. 100 µl of complete DMEM containing 2 µM of Fura-2 were added to each well and left at room temperature in the dark for 1 hr. Following loading with Fura-2, the medium was aspirated and replaced with 90 µl of HEPES-buffered saline (20 mM HEPES, 115 mM NaCl, 5.4 mM KCl, 2 mM CaCl2, 0.8 mM MgCl2, 13.8 mM glucose, pH 7.4).
Imaging was performed using a Zeiss Axiovert 200 M microscope platform equipped with a flipping filter wheel for ratiometric imaging. Axiovision software, version 4.6 was used for image analysis of the cells which were excited at 340 nm and 380 nm. Ten µl of peptide agonist were added at 20 seconds after the start of the excitation procedure. Images were taken every 5 seconds, including at zero time, during a 3-minute period or longer if required. The software later analyzed all images taken during each excitation period. Typically, ratiometric changes were measured in 10–20 cells in each image. An average of the fluorescence of the cells in each image was calculated and plotted against time in seconds.
HeLa cells transfected with PAR2 cDNA were subjected to ratiometric imaging as described above with PAR2 peptides, SLIGRL, KVDGTS, and SLIGKVDGTS in addition to the reverse peptides LRGILS and STGDVK at concentrations from 1 nM - 1 mM. Each of the concentration-dependent readings was performed in triplicate. Maximum intensities at each of the dilutions were calculated and plotted against concentration using GraphPad/PRISM software version 6.0 (Irvine, CA). Error bars represent +/−SEM.

PAR2 = conditions: in vitro, cited from earlier work
Excerpt: PAR2 signaling has been implicated in the development of inflammatory and bowel diseases, asthma, itch and pain. The receptor is expressed on many types of cells including keratinocytes, sensory neurons, fibroblasts, endothelial cells, and inflammatory cells, [3]. Consistent with this broad expression, PAR2 is involved in numerous physiologic and pathophysiologic processes in response to both endogenous and exogenous proteases.

Molecule	effect as first agent on calcium response to second agent (in words) (human PAR2)	PAR2 activation (in words) (PAR2; plant proteases)	PAR2 activation (in words) (PAR2; dust mite allergen)
papain: plant protease (protein, UniProt P00784 134-345, looked up) Papain: IPEYVDWRQKGAVTPVKNQGSCGSCWAFSAVVTIEGIIKIRTGNLNEYSEQELLDCDRRSYGCNGGYPWSALQLVAQYGIHYRNTYPYEGVQRYCRSREKGPYAAKTDGVRQVQPYNEGALLYSIANQPVSVVLEAAGKDFQLYRGGIFVGPCGNKVDHAVAAVGYGPNYILIKNSWGTGWGENGYIRIKRGTGNSYGVCGLYTSSFYPVKN	failed to induce a calcium response at any time up to 60 minutes	supporting activation	
der p 1: dust mite allergen (protein, UniProt P08176 99-320, looked up) Peptidase 1: TNACSINGNAPAEIDLRQMRTVTPIRMQGGCGSCWAFSGVAATESAYLAYRNQSLDLAEQELVDCASQHGCHGDTIPRGIEYIQHNGVVQESYYRYVAREQSCRRPNAQRFGISNYCQIYPPNVNKIREALAQTHSAIAVIIGIKDLDAFRHYDGRTIIQRDNGYQPNYHAVNIVGYSNAQGVDYWIVRNSWDTNWGDNGYGYFAANIDLMMIEEYPYVVIL			supporting activation
